Decrease of the association after RNase A treatment of the extract, increase of the association in the presence of 5S rRNA and Kd data for 3 substances are collected here from PMC4488245.

Series [1] concerns the target TcP37/NRBD (T. cruzi (endogenous in CL Brener epimastigotes)). In words: co-IP; anti-P34/P37 antibody cross-linked to Protein A Dynabeads, 1 mg epimastigote whole cell extract, 4°C overnight, washed in PBS-T; pellet and supernatant blotted with anti-TcL5 peptide antibody; extracts with or without RNase A (20 U/ml, 1 hour, 37°C).
Another series deals with rTcL5 (T. cruzi). The series can be described thus: co-IP; 500 ng rTcP37/NRBD and 500 ng rTcL5, with or without 500 ng in vitro transcribed Tc 5S rRNA, applied to TcL5 antibody cross-linked Dynabeads; eluate and supernatant blotted with P34/P37 antibodies.
The test system of series [2] is TcL5 (ribosomal protein L5) (Trypanosoma cruzi CL Brener). In words: filter binding. The conditions noted are these: 10 mM Tris pH 7.4, 1 mM EDTA, 100 mM NaCl, 0.1% NP40, 100 ug/mL BSA; room temperature, 30 min; 0.5 fmol RNA in 50 ul, 0-500 nM protein.
The test system of series [3] is TcP37/NRBD (Trypanosoma cruzi CL Brener). The series can be described thus: filter binding. The note with it: 10 mM Tris pH 7.4, 1 mM EDTA, 100 mM NaCl, 0.1% NP40, 100 ug/mL BSA; room temperature, 30 min; 0.5 fmol RNA in 50 ul, 0-500 nM protein.

What is called Kd is the concentration at which binding is half-saturated. High values mean lower affinity, low ones higher affinity.

In turn, TcL5 (natural protein) displayed a decrease of the association after RNase A treatment of the extract in series [1] of 74%.

rTcP37/NRBD (natural protein): in the series with rTcL5 (T. cruzi), the increase of the association in the presence of 5S rRNA is 62%.

Take Tc 5S rRNA: the Kd in series [2] worked out at 11 nM; in series [3], 63 nM.
